Laboratory results published in patent US20190225685A1, “ANTI-DLL3 ANTIBODY DRUG CONJUGATES AND METHODS OF USE” (ABBVIE STEMCENTRX LLC, priority 2018, published 2019).

Experiments:
[1] = tested on: recurrent/refractory small cell lung cancer (SCLC); conditions: single agent; cited from earlier work
[2] = tested on: GB8 tumors (GBM PDX tumor line); assay: Glioblastoma PDX tumor growth suppression in immunodeficient mice; type: in vivo, female NOD/SCID mice; conditions: single dose 0.2 mg/kg, intraperitoneal, subcutaneous GB8 tumors, 20 days post-treatment (FIG. 3)
Method: (§1) A GBM PDX tumor line was grown subcutaneously in the flanks of female NOD/SCID mice using art-recognized techniques. Tumor volumes and mouse weights were monitored once or twice per week. When tumor volumes reached 150-250 mm^3, mice were randomly assigned to treatment groups and injected intraperitoneally with SC16.56 PDB3 or an isotype control human IgG1.PDB3. SC16.56 PDB3 comprises the same humanized antibody as found in Rova-t but employs a different PBD cytotoxin. Following treatment, tumor volumes and mouse weights were monitored until tumors exceeded 1000 mm^3 or mice became sick.

[3] = Adverse health effects in treated tumor-bearing mice; type: in vivo, female NOD/SCID mice; conditions: tumor-bearing NOD/SCID mice treated intraperitoneally
Method: as §1

Molecule	clinical activity [1]	tumor growth (tumor volume) [2]	adverse health effects [3]
rovalpituzumab tesirine [Rova-T]	clinically demonstrated single agent activity		
SC16.56 PBD3: anti-DLL3 ADC; comprises the same humanized antibody as found in Rova-T but employs a different PBD cytotoxin (conjugate, chains of the INN, looked up, PBD3 cytotoxin conjugate) VH: QVQLVQSGAEVKKPGASVKVSCKASGYTFTNYGMNWVRQAPGQGLEWMGWINTYTGEPTYADDFKGRVTMTTDTSTSTAYMELRSLRSDDTAVYYCARIGDSSPSDYWGQGTLVTVSS VL: EIVMTQSPATLSVSPGERATLSCKASQSVSNDVVWYQQKPGQAPRLLIYYASNRYTGIPARFSGSGSGTEFTLTISSLQSEDFAVYYCQQDYTSPWTFGQGTKLEIK		tumor suppression	did not exhibit any adverse health effects beyond those typically seen in immunodeficient, tumor-bearing NOD/SCID mice
